T1: mouse SIRPA overexpressed on CHO cells (mouse, UniProt P97797 32-513)
T1 construct: also called CHO-muSIRPA
T1 sequence: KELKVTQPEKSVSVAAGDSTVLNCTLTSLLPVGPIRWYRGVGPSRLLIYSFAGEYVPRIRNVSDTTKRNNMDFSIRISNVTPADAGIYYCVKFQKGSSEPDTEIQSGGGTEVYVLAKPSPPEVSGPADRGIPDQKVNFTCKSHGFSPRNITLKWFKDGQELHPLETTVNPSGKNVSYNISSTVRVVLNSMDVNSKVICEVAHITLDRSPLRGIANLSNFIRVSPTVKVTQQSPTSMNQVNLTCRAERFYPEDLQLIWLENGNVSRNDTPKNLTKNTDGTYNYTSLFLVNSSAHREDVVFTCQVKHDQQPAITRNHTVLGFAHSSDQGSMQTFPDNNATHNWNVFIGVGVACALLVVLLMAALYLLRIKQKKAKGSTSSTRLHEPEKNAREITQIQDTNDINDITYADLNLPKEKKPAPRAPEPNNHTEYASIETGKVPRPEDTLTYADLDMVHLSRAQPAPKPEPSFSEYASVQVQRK

T2: Mouse SIRPA D1 Fc (mouse, UniProt P97797 32-150, limits assumed)
T2 sequence: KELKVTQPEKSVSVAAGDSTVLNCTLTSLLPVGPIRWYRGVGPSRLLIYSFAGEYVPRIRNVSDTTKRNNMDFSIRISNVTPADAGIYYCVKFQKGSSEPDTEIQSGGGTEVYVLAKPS


Assays:
[1] = molecular target: T3, human SIRPA overexpressed on CHO cells (human, UniProt P78324 31-504); experiment: flow, CHO-huSIRPA;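 note: Anti-SIRPA antibodies applied at 1 µg/mL for 1 h on ice, binding read by flow cytometry using a PE-labelled secondary antibody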
T3 construct: also called CHO-huSIRPA
Procedure: (§1) Initial characterization of anti-SIRPA antibodies of the present disclosure involved determining their ability to bind cell lines overexpressing human or mouse SIRPA. Cells were harvested, plated at 10⁶/ml in a 96 well plate, washed, and incubated in 100 ul PBS containing 1 ug/ml Mab for 1 hour in ice. Cells were then washed twice and incubated in 100 ul PBS containing 5 ug/ml PE-conjugated secondary antibody for 30 minutes in ice. Cells were washed twice in cold PBS and acquired on a BD FACS Canto. Data analysis and calculation of mean fluorescence intensity (MFI) values or % positive cells was performed with FlowJo® (TreeStar) software version 10.0.7.

[2] = molecular target: T1, mouse SIRPA overexpressed on CHO cells; experiment: flow, CHO-muSIRPA;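 for relative MFI: antibody binding measured by flow cytometry: cells stained with 1 ug/ml test antibody for 1 h on ice, detected with PE-labelled secondary antibody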
Procedure: as §1

[3] = molecular target: T1, mouse SIRPA overexpressed on CHO cells; experiment: flow, CHO-muSIRPA; remark: listed apart in the source;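 for relative MFI: antibody binding measured by flow cytometry: cells stained with 1 ug/ml test antibody for 1 h on ice, detected with PE-labelled secondary antibody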
Human SIRPb D1 Fc = Human SIRPb D1 Fc (human, UniProt O00241 30-148, limits assumed); experiment: ForteBio IgG avid;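 note: antibody IgG captured on AHQ biosensors, then 100 nM Fc-fused SIRP antigen applied for 3 min, followed by 3 min buffer dissociation, kinetics fitted to a 1:1 model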
Sequence of Human SIRPb D1 Fc (O00241 30-148 limits assumed): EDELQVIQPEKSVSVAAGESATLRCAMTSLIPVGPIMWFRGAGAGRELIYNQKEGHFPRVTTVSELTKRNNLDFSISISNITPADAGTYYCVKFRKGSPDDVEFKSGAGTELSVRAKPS
Procedure: (§2) Briefly, ForteBio affinity measurements were performed by loading IgGs on-line onto AHQ sensors. Sensors were equilibrated off-line in assay buffer for 30 min and then monitored on-line for 60 seconds for baseline establishment. For avid binding measurement, sensors with loaded IgGs were exposed to 100 nM antigen (human SIRPA or SIRPβ1 Fc fusion) for 3 min, afterwards they were transferred to assay buffer for 3 min for off-rate measurement. Additional avid binding was determined by loading biotinylated SIRPA monomer on SA sensors and exposure to 100 nM IgG in solution. Monovalent binding measurements were obtained by loading human SIRPA or SIRPβ1 Fc fusion antigens to AHQ sensor and followed by exposure to 100 nM anti-SIRPA antibody Fab. Additional monovalent measurements were made by loading biotinylated human SIRPA or SIRPβ1 monomer to SA sensor followed by exposure to 100 nM Fab in solution. Kinetics data were fit using a 1:1 binding model in the data analysis software provided by ForteBio.

Mouse SIRPA D1 Fc = molecular target: T2, Mouse SIRPA D1 Fc; experiment: ForteBio IgG avid;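 note: antibody IgG captured on AHQ biosensors, then 100 nM Fc-fused SIRP antigen applied for 3 min, followed by 3 min buffer dissociation, kinetics fitted to a 1:1 model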
Procedure: as §2

[4] = molecular target: T4, human SIRPA Fc fusion antigen (human, UniProt P78324 31-373); experiment: ForteBio IgG avid;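 note: ForteBio sensor-based avid binding of anti-SIRPA antibodies in IgG format, with the binding partner in solution at 100 nM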
T4 construct: heterologous signal peptide; not shown: human IgG1 Fc

[5] = molecular target: T5, human SIRPβ1 Fc fusion antigen (human, UniProt O00241 30-371); experiment: ForteBio IgG avid;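 note: ForteBio sensor-based avid binding of anti-SIRPA antibodies in IgG format, with the binding partner in solution at 100 nM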
T5 construct: not shown: human IgG1 Fc
T5 sequence (O00241 30-371 limits assumed): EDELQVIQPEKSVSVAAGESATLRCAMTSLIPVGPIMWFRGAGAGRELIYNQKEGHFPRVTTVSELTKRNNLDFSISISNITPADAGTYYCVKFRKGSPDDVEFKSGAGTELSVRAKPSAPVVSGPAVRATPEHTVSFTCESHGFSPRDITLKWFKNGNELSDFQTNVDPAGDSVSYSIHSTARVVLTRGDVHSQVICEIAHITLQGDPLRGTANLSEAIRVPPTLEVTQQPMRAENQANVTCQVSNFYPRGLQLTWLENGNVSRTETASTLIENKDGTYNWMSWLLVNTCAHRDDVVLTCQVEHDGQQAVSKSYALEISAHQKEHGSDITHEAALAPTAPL

Row | Binder | relative MFI [1] [fold over background] | relative MFI [2] [fold over background] | binding result [3] | binding result (Human SIRPb D1 Fc) | binding result (Mouse SIRPA D1 Fc) | Kd [4] [nM] | Kd [5] [nM] | Kd (Human SIRPb D1 Fc) [nM]
1 | SA-41 (antibody, V domains shown, IgG) VH: QVQLQESGPGLVKPSETLSLTCTVSGGSISSYYWSWIRQPPGKGLEWIGSIYYSGSTNYNPSLKSRVTISVDTSKNQFSLKLSSVTAADTAVYYCAREGVAARGYYYGMDVWGQGTTVTVSS VL: EIVMTQSPATLSVSPGERATLSCRASQSVSSSLAWYQQKPGQAPRLLIYGASTRATGIPARFSGSGSGTEFTLTISSLQSEDFAVYYCQQYITYPITFGGGTKVEIK | 0.989 | 0.47 | no binding (tested: 1 ug/ml) | no binding (tested: 100 nM) | no binding (tested: 100 nM) |  |  | 
2 | SA-42 (antibody, V domains shown, IgG) VH: QVQLQESGPGLVKPSETLSLTCTVSGGSISSYYWSWIRQPPGKGLEWIGSIYYSGSTNYNPSLKSRVTISVDTSKNQFSLKLSSVTAADTAVYYCAREGVAARGYYYGMDVWGQGTTVTVSS VL: EIVMTQSPATLSVSPGERATLSCRASQSVSSNLAWYQQKPGQAPRLLIFGASTRATGIPARFSGSGSGTEFTLTISSLQSEDFAVYYCQQYNAYPITFGGGTKVEIK | 1.29 | 0.443 | no binding (tested: 1 ug/ml) | no binding (tested: 100 nM) | no binding (tested: 100 nM) |  |  | 
3 | SA-48 (antibody, V domains shown, IgG) VH: QVQLVESGGGVVQPGRSLRLSCAASGFTFSSYGMHWVRQAPGKGLEWVAVISYDGSNKYYADSVKGRFTISRDNSKNTLYLQMNSLRAEDTAVYYCARGAPIETLGVYYYGMDVWGQGTTVTVSS VL: not shown | 3.27 | 0.545 | no binding (tested: 1 ug/ml) | no binding (tested: 100 nM) | no binding (tested: 100 nM) |  |  | 
4 | SA-53 (antibody, V domains shown, IgG) VH: QVQLQESGPGLVKPSQTLSLTCTVSGGSISSGGYYWSWIRQHPGKGLEWIGYIYYSGSTYYNPSLKSRVTISVDTSKNQFSLKLSSVTAADTAVYYCARGPLGAAGFDYWGQGTLVTVSS VL: not shown | 2.13 | 0.726 | no binding (tested: 1 ug/ml) | no binding (tested: 100 nM) | no binding (tested: 100 nM) |  |  | 
5 | SA-19-72 (antibody, V domains shown, IgG) VH: QVQLVESGGGVVQPGRSLGLSCAASGFTFSSYAMHWVRQAPGKGLEWVAGILYDGSNKYYADSVKGRFTISRDNSKNTLYLQMNSLRAEDTAVYYCARSNEKYTLGFAFDIWGQGTMVTVSS VL: not shown |  |  |  |  |  | 1.1 | 4.75 | 
6 | SA-19-73 (antibody, V domains shown, IgG) VH: QVQLVESGGGLVQPGGSLRLSCAASGFTFSSYAMHWVRQAPGKGLEWVAGILYDGSNKYYADSVKGRFTISRDNSKNTLYLQMNSLRAEDTAVYYCANSDTKYTLGFAFDIWGQGTMVTVSS VL: not shown |  |  |  |  |  | 0.71 | 2.95 | 
7 | SA-50 (antibody, V domains shown, IgG) VH: EVQLVESGGGLVQPGGSLRLSCAASGFTFSSYSMNWVRQAPGKGLEWVSYISSSSSTIYYADSVKGRFTISRDNAKNSLYLQMNSLRAEDTAVYYCARGGGGYSYSPYIYGMDVWGQGTTVTVSS VL: not shown | 5.56 | 0.518 | no binding (tested: 1 ug/ml) | no binding (tested: 100 nM) | no binding (tested: 100 nM) |  |  | 
8 | SA-7 (antibody, V domains shown, IgG) VH: QVQLVESGGGVVQPGRSLRLSCAASGFTFSSYGMHWVRQAPGKGLEWVALIWYDGSNKYYADSVKGRFTISRDNSKNTLYLQMNSLRAEDTAVYYCAKEGSSYADGWPYGMDVWGQGTTVTVSS VL: not shown | 0.708 | 0.515 | no binding (tested: 1 ug/ml) | no binding (tested: 100 nM) | no binding (tested: 100 nM) |  |  | 
9 | SA-45 (antibody, V domains shown, IgG) VH: QVQLVQSGAEVKKPGASVKVSCKASGYTFTSYGISWVRQAPGQGLEWMGWISAYNGNTNYAQKLQGRVTMTTDTSTSTAYMELRSLRSDDTAVYYCARESGGTGAYGMDVWGQGTTVTVSS VL: DIQMTQSPSSLSASVGDRVTITCRASQSVSSSYLAWYQQKPGQAPRLLIYGASSRATGIPDRFSGSGSGTDFTLTISRLEPEDFAVYYCQQYYDSITFGGGTKVEIK | 14.1 | 0.512 | no binding (tested: 1 ug/ml) | no binding (tested: 100 nM) | no binding (tested: 100 nM) |  |  | 
10 | SA-57 (antibody, V domains shown, IgG) VH: QLQLQESGPGLVKPSETLSLTCTVSGGSISSSSYAWGWIRQPPGKGLEWIGSIYYSGSTYYNPSLKSRVTISVDTSKNQFSLKLSSVTAADTAVYYCARKGMDDAGMDVWGQGTTVTVSS VL: EIVLTQSPATLSLSPGERATLSCRASQSVSSYLAWYQQKPGQAPRLLIYDASNRATGIPARFSGSGSGTDFTLTISSLEPEDFAVYYCQQDSAWPFTFGGGTKVEIK | 1.89 | 0.464 | no binding (tested: 1 ug/ml) | no binding (tested: 100 nM) | no binding (tested: 100 nM) |  |  | 
11 | SA-6 (antibody, V domains shown, IgG) VH: EVQLVESGGGLVQPGRSLRLSCAASGFTFDDYAMHWVRQAPGKGLEWVSGITWNSGSIGYADSVKGRFTISRDNAKNSLYLQMNSLRAEDTALYYCAKEGRYGSGITTTWGQGTLVTVSS VL: EIVMTQSPATLSLSPGERATLSCRASQSVSSYLAWYQQKPGQAPRLLIYDSSNRATGIPARFSGSGSGTDFTLTISSLEPEDFAVYYCQQDANYPYTFGGGTKVEIK | 3.13 | 0.545 | no binding (tested: 1 ug/ml) | no binding (tested: 100 nM) | no binding (tested: 100 nM) |  |  | 
12 | SA-13 (antibody, V domains shown, IgG; also called SA-13 (parental)) VH: not shown VL: DIQMTQSPSSLSASVGDRVTITCRASQSISSYLNWYQQKPGKAPKLLIYAASSLQSGVPSRFSGSGSGTDFTLTISSLQPEDFATYYCQQGYIYPPTFGGGTKVEIK | 59.9 | 0.571 | no binding (tested: 1 ug/ml) |  | no binding (tested: 100 nM) |  | 12.3 | 19.6
13 | SA-44 (antibody, V domains shown, IgG) VH: EVQLVESGGGLVQPGGSLRLSCAASGFTFSSYSMNWVRQAPGKGLEWVSYISSSSSTIYYADSVKGRFTISRDNAKNSLYLQMNSLRAEDTAVYYCAREPFYSADRFDYWGQGTLVTVSS VL: DIQMTQSPSSVSASVGDRVTITCRASQGIDSWLAWYQQKPGKAPKLLIYAASSLQSGVPSRFSGSGSGTDFTLTISSLQPEDFATYYCQQGVSLPYTFGGGTKVEIK | 1.2 | 0.56 | no binding (tested: 1 ug/ml) | no binding (tested: 100 nM) | no binding (tested: 100 nM) |  |  | 
14 | SA-13-69 (antibody, V domains shown, IgG) VH: EVQLLESGGGLVQPGGSLRLSCAASGFTFTEYAMSWVRQAPGKGLEWVSAISGSGGSTYYADSVKARFTISRDNSKNTLYLQMNSLRAEDTAVYYCARDGTQWGPHFYWGQGTLVTVSS VL: DIQMTQSPSSLSASVGDRVTITCRASQSISSYLNWYQQKPGKAPKLLIYAASSLQSGVPSRFSGSGSGTDFTLTISSLQPEDFATYYCQQGYIYPPTFGGGTKVEIK |  |  |  |  |  |  | 3.99 | 
15 | SA-40 (antibody, V domains shown, IgG) VH: QVQLVQSGAEVKKPGASVKVSCKASGYTFTSYYMHWVRQAPGQGLEWMGIINPSGGSTTYAQKFQGRVTMTRDTSTSTVYMELSSLRSEDTAVYYCAREGLASTGVSDYYYMDVWGKGTTVTVSS VL: EIVLTQSPGTLSLSPGERATLSCRASQSVSSSYLAWYQQKPGQAPRLLIYGASSRATGIPDRFSGSGSGTDFTLTISRLEPEDFAVYYCQQLAHSPFTFGGGTKVEIK | 0.542 | 0.446 | no binding (tested: 1 ug/ml) | no binding (tested: 100 nM) | no binding (tested: 100 nM) |  |  | 
16 | SA-52 (antibody, V domains shown, IgG) VH: QVQLVQSGAEVKKPGASVKVSCKASGYTFTNYGISWVRQAPGQGLEWMGWISAYNGNTNYAQKLQGRVTMTTDTSTSTAYMELRSLRSDDTAVYYCARGLWSEHIYWGQGTLVTVSS VL: EIVMTQSPGTLSLSPGERATLSCRASQSVSSSYLAWYQQKPGQAPRLLIYGASNRATGIPDRFSGSGSGTDFTLTISRLEPEDFAVYYCQQYVDLPLTFGGGTKVEIK | 1.9 | 0.557 | no binding (tested: 1 ug/ml) | no binding (tested: 100 nM) | no binding (tested: 100 nM) |  |  | 

From patent publication US20240270866A1 (Alector, published 2024)
